From patent publication US20150344570A1 (published 2015)

T1: FcγRIIb extracellular domain with C-terminal His tag (human, UniProt P31994 43-217)
T1 construct: extracellular domain; Soluble receptor expressed in FreeStyle293 cells and used as analyte in Biacore; also called FcgRIIb; 2b; not shown: His tag attached to the C terminus
T1 sequence (looked up): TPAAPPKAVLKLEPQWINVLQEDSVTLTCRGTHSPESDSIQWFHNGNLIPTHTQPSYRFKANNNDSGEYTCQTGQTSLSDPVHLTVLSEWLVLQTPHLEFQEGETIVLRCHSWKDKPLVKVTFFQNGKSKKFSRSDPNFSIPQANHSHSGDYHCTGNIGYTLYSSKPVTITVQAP

T2: FcγRIIb (human, UniProt P31994 43-217)
T2 construct: extracellular domain; Soluble extracellular domain with C-terminal His tag, used as analyte in Biacore; also called FcgRIIb; 2b; not shown: His tag attached to the C terminus
T2 sequence (looked up): T1 sequence (looked up)

B1: GpH7-A5/GpH7-B3 variant E269_13S/GpL16-k0 (antibody, human IgG1, kappa)
heavy 1: not shown
heavy 2: not shown
light: DIVMTQSPLSLPVTPGEPASISCQASESLVHSNRNTYLHWYLQKPGQSPQLLIYKVSNRFSGVPDRFSGSGSGTDFTLKISRVEAEDVGVYYCSQNTHVPPTFGQGTKVEIERTVAAPSVFIFPPSDEQLKSGTASVVCLLNNFYPREAKVQWKVDNALQSGNSQESVTEQDSKDSTYSLSSTLTLSKADYEKHKVYACEVTHQGLSSPVTKSFNRGEC
notes: Heterodimerized anti-glypican-3 IgG1 with the alteration in only one H chain; also called He Ab
B2: GpH7-A5/GpH7-B3 variant G237_02A/GpL16-k0 (antibody, human IgG1, kappa)
heavy 1: not shown
heavy 2: not shown
light: B1 light
notes: Heterodimerized anti-glypican-3 IgG1; alteration in the GpH7-B3 chain only; also called He Ab
B3: GpH7-A5/GpH7-B3 variant G237_18N/GpL16-k0 (antibody, human IgG1, kappa)
heavy 1: not shown
heavy 2: not shown
light: B1 light
notes: as for B2
B4: GpH7-A5/GpH7-B3 variant P271_20W/GpL16-k0 (antibody, human IgG1, kappa)
heavy 1: not shown
heavy 2: not shown
light: B1 light
notes: as for B1
B5: GpH7-A5/GpH7-B3 variant G237_08L/GpL16-k0 (antibody, human IgG1, kappa)
heavy 1: not shown
heavy 2: not shown
light: B1 light
notes: as for B2
B6: GpH7-A5/GpH7-B3 variant Q295_02A/GpL16-k0 (antibody, human IgG1, kappa)
heavy 1: not shown
heavy 2: not shown
light: B1 light
notes: as for B1
B7: GpH7-A5/GpH7-B3 variant Q295_09D/GpL16-k0 (antibody, human IgG1, kappa)
heavy 1: not shown
heavy 2: not shown
light: B1 light
notes: as for B1
B8: GpH7-A5/GpH7-B3 variant G237_06M/GpL16-k0 (antibody, human IgG1, kappa)
heavy 1: not shown
heavy 2: not shown
light: B1 light
notes: as for B2
B9: GpH7-A5/GpH7-B3 variant Q295_01G/GpL16-k0 (antibody, human IgG1, kappa)
heavy 1: not shown
heavy 2: not shown
light: B1 light
notes: as for B1
B10: GpH7-A5/GpH7-B3 variant G237_15Y/GpL16-k0 (antibody, human IgG1, kappa)
heavy 1: not shown
heavy 2: not shown
light: B1 light
notes: as for B2
B11: GpH7-A5/GpH7-B3 variant E269_18N/GpL16-k0 (antibody, human IgG1, kappa)
heavy 1: not shown
heavy 2: not shown
light: B1 light
notes: as for B1
B12: GpH7-A5/GpH7-B3 variant G236_09D/GpL16-k0 (antibody, human IgG1, kappa)
heavy 1: not shown
heavy 2: not shown
light: B1 light
notes: as for B2
B13: GpH7-A5/GpH7-B3 variant G237_04F/GpL16-k0 (antibody, human IgG1, kappa)
heavy 1: not shown
heavy 2: not shown
light: B1 light
notes: as for B2
B14: GpH7-A5/GpH7-B3 variant E269_16H/GpL16-k0 (antibody, human IgG1, kappa)
heavy 1: not shown
heavy 2: not shown
light: B1 light
notes: as for B1
B15: GpH7-A5/GpH7-B3 variant E269_19Q/GpL16-k0 (antibody, human IgG1, kappa)
heavy 1: not shown
heavy 2: not shown
light: B1 light
notes: as for B1
B16: GpH7-A5/GpH7-B3 variant G237_10E/GpL16-k0 (antibody, human IgG1, kappa)
heavy 1: not shown
heavy 2: not shown
light: B1 light
notes: as for B2
B17: GpH7-A5/GpH7-B3 variant G237_09D/GpL16-k0 (antibody, human IgG1, kappa)
heavy 1: not shown
heavy 2: not shown
light: B1 light
notes: as for B2

Columns and labels:
[1] = biological target: T1, FcγRIIb extracellular domain with …; assay: SPR (Biacore), antibody captured, FcγR as analyte; binding activity relative to control heterodimerized antibody
Experimental: (§1) The heterodimerized antibodies He Abs in which one of the H chains was introduced with an alteration were assayed for their binding activities to each activating FcγR and inhibitory FcγR according to the method described in Example 4. […] The activating FcγRs in FIGS. 26, 27, 28, and 29 are FcγRIa, FcγRIIa (R), FcγRIIa (H), and FcγRIIIa, respectively.
(§2) Analysis of interaction between objective antibody and the FcγR was carried out using Biacore T100 (GE Healthcare). HBS-EP+ (GE Healthcare) was used as the running buffer, and the measurement temperature was set to 25° C. Chips produced by immobilizing the antigen peptide by the amine coupling method to a Series S Sencor Chip CM5 (GE Healthcare), or alternatively, chips produced by allowing preliminarily biotinylated antigen peptides to interact with and immobilize onto a Series S Sensor Chip SA (certified) (GE Healthcare) were used. Antibodies of interest were captured onto an antigen peptide-immobilized chip, and allowed to interact to each FcγR diluted with running buffer. To regenerate and repeatedly use the chip, the antibodies captured on the chip were washed off by reacting 10 mM glycine-HCl, pH 1.5.

[2] = biological target: T3, FcγRIIIa extracellular domain with C-terminal His tag (human, UniProt P08637 17-208); assay: as above
T3 construct: extracellular domain; also called FcgRIIIa; 3a; not shown: His tag attached to the C terminus
Experimental: as §1, §2

[3] = biological target: T3, FcγRIIIa extracellular domain with …; assay: SPR (Biacore); He/Con_3a divided by He/Con_2b (FcγRIIIa over FcγRIIb)
Experimental: as §1, §2

[4] = biological target: T4, FcγRIa (human, UniProt P12314 16-292); assay: SPR (Biacore), antibody captured, FcγR as analyte; relative to GpH7-A5/GpH7-B3/GpL16-k0 = 100
T4 construct: extracellular domain; Soluble extracellular domain with C-terminal His tag, used as analyte in Biacore; also called FcgRI; 1a; not shown: His tag attached to the C terminus

[5] = biological target: T2, FcγRIIb; assay: as above
[6] = biological target: T4, FcγRIa; assay: SPR (Biacore); He/Con_1a divided by He/Con_2b (binding to FcγRIa against binding to FcγRIIb)
Experimental: as §1, §2

T4 sequence (P12314 16-292): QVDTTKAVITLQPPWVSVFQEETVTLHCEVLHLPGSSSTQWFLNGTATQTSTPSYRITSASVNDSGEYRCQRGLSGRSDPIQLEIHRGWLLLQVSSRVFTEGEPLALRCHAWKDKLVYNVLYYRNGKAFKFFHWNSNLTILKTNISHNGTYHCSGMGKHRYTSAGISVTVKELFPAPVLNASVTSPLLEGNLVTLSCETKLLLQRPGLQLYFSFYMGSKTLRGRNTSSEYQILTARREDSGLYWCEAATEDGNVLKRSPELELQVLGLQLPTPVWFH
T3 sequence (P08637 17-208): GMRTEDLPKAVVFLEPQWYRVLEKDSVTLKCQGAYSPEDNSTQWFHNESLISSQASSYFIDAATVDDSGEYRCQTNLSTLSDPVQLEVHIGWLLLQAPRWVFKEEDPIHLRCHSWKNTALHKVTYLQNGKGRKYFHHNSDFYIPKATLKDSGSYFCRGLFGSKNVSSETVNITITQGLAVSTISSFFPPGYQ

Binder | He/Con_2b [1] | He/Con_3a [2] | He_3a/2b [3] | He/Con_1a [4] | He/Con_2b [5] | He_1a/2b (Ia/IIb) [6]
B1 | 47.8 % of GpH7-A5/GpH7-B3/GpL16-k0 (=100) | 62.7 % of GpH7-A5/GpH7-B3/GpL16-k0 (=100) | 1.31 ratio |  |  | 
B2 |  |  |  | 90.3 % of control (=100) | 124 % of control (=100) | 0.73 ratio
B3 |  |  |  | 82.5 % of control (=100) | 180 % of control (=100) | 0.46 ratio
B4 | 58.1 % of GpH7-A5/GpH7-B3/GpL16-k0 (=100) | 74.1 % of GpH7-A5/GpH7-B3/GpL16-k0 (=100) | 1.28 ratio |  |  | 
B5 |  |  |  | 79.6 % of control (=100) | 148 % of control (=100) | 0.54 ratio
B6 | 79.7 % of GpH7-A5/GpH7-B3/GpL16-k0 (=100) | 106 % of GpH7-A5/GpH7-B3/GpL16-k0 (=100) | 1.32 ratio |  |  | 
B7 | 60.8 % of GpH7-A5/GpH7-B3/GpL16-k0 (=100) | 81.5 % of GpH7-A5/GpH7-B3/GpL16-k0 (=100) | 1.34 ratio |  |  | 
B8 |  |  |  | 81.6 % of control (=100) | 130 % of control (=100) | 0.63 ratio
B9 | 46 % of GpH7-A5/GpH7-B3/GpL16-k0 (=100) | 73 % of GpH7-A5/GpH7-B3/GpL16-k0 (=100) | 1.59 ratio |  |  | 
B10 |  |  |  | 79.6 % of control (=100) | 152 % of control (=100) | 0.52 ratio
B11 | 44.8 % of GpH7-A5/GpH7-B3/GpL16-k0 (=100) | 57.8 % of GpH7-A5/GpH7-B3/GpL16-k0 (=100) | 1.29 ratio |  |  | 
B12 |  |  |  | 96.6 % of control (=100) | 167 % of control (=100) | 0.58 ratio
B13 |  |  |  | 81.5 % of control (=100) | 149 % of control (=100) | 0.55 ratio
B14 | 38.5 % of GpH7-A5/GpH7-B3/GpL16-k0 (=100) | 51.2 % of GpH7-A5/GpH7-B3/GpL16-k0 (=100) | 1.33 ratio |  |  | 
B15 | 44.3 % of GpH7-A5/GpH7-B3/GpL16-k0 (=100) | 65 % of GpH7-A5/GpH7-B3/GpL16-k0 (=100) | 1.47 ratio |  |  | 
B16 |  |  |  | 75.1 % of control (=100) | 114 % of control (=100) | 0.66 ratio
B17 |  |  |  | 84 % of control (=100) | 223 % of control (=100) | 0.38 ratio
